Assay results as given in the Human Domainome abundance scans (Beltran et al. 2025).
± gives the uncertainty stated by the source.

B1: Nucleosome-remodeling factor subunit BPTF, residues 2862 to 2918; numbered along this chain, Q12830 (parent)
chain: TKKDTKLYCICKTPYDESKFYIGCDRCQNWYHGRCVGILQSEAELIDEYVCPQCQST

Variants of: B1
Assay: abundance fitness (aPCA) (normalised: wild type 0, dead -1); higher = more abundant; growth selection in yeast, the domain comes from the species named
Details: Homo sapiens
With TKKDTKLYCICKTDYDESKFYIGCDRCQNWYHGRCVGILQSEAELIDEYVCPQCQST [P14D] the abundance fitness was -0.581 ± 0.12. For TKKDTKLYCICKTHYDESKFYIGCDRCQNWYHGRCVGILQSEAELIDEYVCPQCQST [P14H], the abundance fitness was -0.275 ± 0.11. Work on TKKDTKLYCICKTMYDESKFYIGCDRCQNWYHGRCVGILQSEAELIDEYVCPQCQST [P14M] yielded an abundance fitness of -0.096 ± 0.095. In the case of TKKDTKLYCICKTSYDESKFYIGCDRCQNWYHGRCVGILQSEAELIDEYVCPQCQST [P14S], the abundance fitness is reported as -0.161 ± 0.074. With TKKDTKLYCICKTKYDESKFYIGCDRCQNWYHGRCVGILQSEAELIDEYVCPQCQST [P14K] the abundance fitness was -0.096 ± 0.1. Work on TKKDTKLYCICKTAYDESKFYIGCDRCQNWYHGRCVGILQSEAELIDEYVCPQCQST [P14A] yielded an abundance fitness of 0.008 ± 0.08. For TKKDTKLYCICKTTYDESKFYIGCDRCQNWYHGRCVGILQSEAELIDEYVCPQCQST [P14T], the abundance fitness was -0.206 ± 0.083. Work on TKKDTKLYCICKTQYDESKFYIGCDRCQNWYHGRCVGILQSEAELIDEYVCPQCQST [P14Q] yielded an abundance fitness of -0.263 ± 0.092. For TKKDTKLYCICKTYYDESKFYIGCDRCQNWYHGRCVGILQSEAELIDEYVCPQCQST [P14Y], the abundance fitness was -0.131 ± 0.13. TKKDTKLYCICKTWYDESKFYIGCDRCQNWYHGRCVGILQSEAELIDEYVCPQCQST [P14W] showed an abundance fitness of -0.447 ± 0.088. With TKKDTKLYCICKTGYDESKFYIGCDRCQNWYHGRCVGILQSEAELIDEYVCPQCQST [P14G] the abundance fitness was -0.42 ± 0.075. Variant TKKDTKLYCICKTIYDESKFYIGCDRCQNWYHGRCVGILQSEAELIDEYVCPQCQST [P14I] has an abundance fitness of -0.216 ± 0.16. Work on TKKDTKLYCICKTEYDESKFYIGCDRCQNWYHGRCVGILQSEAELIDEYVCPQCQST [P14E] yielded an abundance fitness of -0.163 ± 0.11. TKKDTKLYCICKTLYDESKFYIGCDRCQNWYHGRCVGILQSEAELIDEYVCPQCQST [P14L] showed an abundance fitness of -0.212 ± 0.085. For TKKDTKLYCICKTNYDESKFYIGCDRCQNWYHGRCVGILQSEAELIDEYVCPQCQST [P14N], the abundance fitness was -0.191 ± 0.14. TKKDTKLYCICKTVYDESKFYIGCDRCQNWYHGRCVGILQSEAELIDEYVCPQCQST [P14V] showed an abundance fitness of -0.229 ± 0.087. TKKDTKLYCICKTCYDESKFYIGCDRCQNWYHGRCVGILQSEAELIDEYVCPQCQST [P14C] showed an abundance fitness of -0.367 ± 0.11. TKKDTKLYCIKKTPYDESKFYIGCDRCQNWYHGRCVGILQSEAELIDEYVCPQCQST [C11K] showed an abundance fitness of -0.822 ± 0.15. Variant TKKDTKLYCIPKTPYDESKFYIGCDRCQNWYHGRCVGILQSEAELIDEYVCPQCQST [C11P] has an abundance fitness of -0.802 ± 0.12. TKKDTKLYCIYKTPYDESKFYIGCDRCQNWYHGRCVGILQSEAELIDEYVCPQCQST [C11Y] showed an abundance fitness of -0.997 ± 0.1. TKKDTKLYCILKTPYDESKFYIGCDRCQNWYHGRCVGILQSEAELIDEYVCPQCQST [C11L] gave an abundance fitness of -0.828 ± 0.092. TKKDTKLYCIIKTPYDESKFYIGCDRCQNWYHGRCVGILQSEAELIDEYVCPQCQST [C11I] showed an abundance fitness of -0.968 ± 0.18. For TKKDTKLYCIHKTPYDESKFYIGCDRCQNWYHGRCVGILQSEAELIDEYVCPQCQST [C11H], the abundance fitness was -1.01 ± 0.2. Work on TKKDTKLYCIQKTPYDESKFYIGCDRCQNWYHGRCVGILQSEAELIDEYVCPQCQST [C11Q] yielded an abundance fitness of -0.947 ± 0.17. TKKDTKLYCIRKTPYDESKFYIGCDRCQNWYHGRCVGILQSEAELIDEYVCPQCQST [C11R] showed an abundance fitness of -0.818 ± 0.1. With TKKDTKLYCIVKTPYDESKFYIGCDRCQNWYHGRCVGILQSEAELIDEYVCPQCQST [C11V] the abundance fitness was -1.03 ± 0.1. Work on TKKDTKLYCINKTPYDESKFYIGCDRCQNWYHGRCVGILQSEAELIDEYVCPQCQST [C11N] yielded an abundance fitness of -0.857 ± 0.21. Variant TKKDTKLYCIMKTPYDESKFYIGCDRCQNWYHGRCVGILQSEAELIDEYVCPQCQST [C11M] has an abundance fitness of -0.803 ± 0.14. For TKKDTKLYCIWKTPYDESKFYIGCDRCQNWYHGRCVGILQSEAELIDEYVCPQCQST [C11W], the abundance fitness was -1.09 ± 0.19. TKKDTKLYCISKTPYDESKFYIGCDRCQNWYHGRCVGILQSEAELIDEYVCPQCQST [C11S] showed an abundance fitness of -0.934 ± 0.093. In the case of TKKDTKLYCICQTPYDESKFYIGCDRCQNWYHGRCVGILQSEAELIDEYVCPQCQST [K12Q], the abundance fitness is reported as 0.006 ± 0.086. TKKDTKLYCICCTPYDESKFYIGCDRCQNWYHGRCVGILQSEAELIDEYVCPQCQST [K12C] showed an abundance fitness of -0.104 ± 0.067. Work on TKKDTKLYCICYTPYDESKFYIGCDRCQNWYHGRCVGILQSEAELIDEYVCPQCQST [K12Y] yielded an abundance fitness of -0.134 ± 0.1. TKKDTKLYCICITPYDESKFYIGCDRCQNWYHGRCVGILQSEAELIDEYVCPQCQST [K12I] gave an abundance fitness of -0.869 ± 0.14. In the case of TKKDTKLYCICMTPYDESKFYIGCDRCQNWYHGRCVGILQSEAELIDEYVCPQCQST [K12M], the abundance fitness is reported as -0.167 ± 0.095. For TKKDTKLYCICVTPYDESKFYIGCDRCQNWYHGRCVGILQSEAELIDEYVCPQCQST [K12V], the abundance fitness was -0.808 ± 0.094. In the case of TKKDTKLYCICETPYDESKFYIGCDRCQNWYHGRCVGILQSEAELIDEYVCPQCQST [K12E], the abundance fitness is reported as -0.025 ± 0.15. Variant TKKDTKLYCICHTPYDESKFYIGCDRCQNWYHGRCVGILQSEAELIDEYVCPQCQST [K12H] has an abundance fitness of -0.061 ± 0.097. With TKKDTKLYCICNTPYDESKFYIGCDRCQNWYHGRCVGILQSEAELIDEYVCPQCQST [K12N] the abundance fitness was -0.233 ± 0.12. With TKKDTKLYCICTTPYDESKFYIGCDRCQNWYHGRCVGILQSEAELIDEYVCPQCQST [K12T] the abundance fitness was -0.106 ± 0.074. Work on TKKDTKLYCICFTPYDESKFYIGCDRCQNWYHGRCVGILQSEAELIDEYVCPQCQST [K12F] yielded an abundance fitness of -0.253 ± 0.084. TKKDTKLYCICLTPYDESKFYIGCDRCQNWYHGRCVGILQSEAELIDEYVCPQCQST [K12L] showed an abundance fitness of -0.121 ± 0.062. TKKDTKLYCICSTPYDESKFYIGCDRCQNWYHGRCVGILQSEAELIDEYVCPQCQST [K12S] gave an abundance fitness of -0.119 ± 0.058. Variant TKKDTKLYCICRTPYDESKFYIGCDRCQNWYHGRCVGILQSEAELIDEYVCPQCQST [K12R] has an abundance fitness of -0.07 ± 0.062. TKKDTKLYCICWTPYDESKFYIGCDRCQNWYHGRCVGILQSEAELIDEYVCPQCQST [K12W] gave an abundance fitness of -0.56 ± 0.088. For TKKDTKLYCICDTPYDESKFYIGCDRCQNWYHGRCVGILQSEAELIDEYVCPQCQST [K12D], the abundance fitness was -0.2 ± 0.12. In the case of TKKDTKLYCICPTPYDESKFYIGCDRCQNWYHGRCVGILQSEAELIDEYVCPQCQST [K12P], the abundance fitness is reported as -0.907 ± 0.12.
